Source: patent publication US5811393A (The Childrens Medical Center Corp., priority 1993, dated 1998)

Tested on: bovine aortic smooth muscle cells
Assay: [3H]-thymidine incorporation into smooth muscle cell DNA
Format: cell-based
Conditions: purification steps of HB-EHM from 8 L U-937 conditioned medium
Method: Conditioned medium was assayed for growth factor activity directly, as described below, using either fibroblasts (i.e., BALB/c mouse 3T3 cells), epithelial cells (i.e., human keratinocytes), or smooth muscle cells (i.e., bovine aortic smooth muscle cells, BASMC). Alternatively, CM was first fractionated by fast protein liquid chromatography (FPLC, Pharmacia, Piscataway, N.J.) by applying 500 ml of the CM to a TSK-heparin 5PW column (8×75 mm, TOSOHAAS, Philadelphia, Pa.). The column was washed with 10 column volumes of equilibration buffer (0.2M NaCl, 0.01M Tris-HCl, pH 7.5), and bound protein was eluted with a 40 ml linear gradient of 0.2-2M NaCl in 0.01M Tris-HCl , pH 7.4 at 1 ml/min. Fractions (2.5 ml) were tested for growth factor activity by measuring the effect of aliquots of the fractions on DNA synthesis in, or the proliferation of, BALB/c mouse 3T3 cells; such activity was monitored by assaying the incorporation of [^3 H]-thymidine into DNA and/or by measuring the increase in cell number. Measurement of DNA synthesis in BALB/c mouse 3T3 cells was performed as described by Shing et al. (223 Science 1296, 1984, hereby incorporated by reference). One unit of BALB/c mouse 3T3 stimulation activity was defined as the amount of growth factor required to stimulate half-maximal DNA synthesis in BALB/c mouse 3T3 cells under the conditions described in Shing et al. (supra). […]

B1: HB-EHM: novel heparin binding growth factor with EGF-homologous segment, purified from U-937 lymphoma cell conditioned medium, about 22 kD (protein)
chain: RVTLSSKPQALATPNKEEHGKRKKKGKGLGKKRDPCLRKYKDFCIHGECKYVKELRAPSCICHPGYHGERCHGLS
modifications: O-linked glycosylation (suggested by O-glycanase treatment; the threonines predicted at positions 2 and 12 of the form first sequenced were not detected in protein sequencing)
For B1, the “Maximal Stimulation” value was 0.5 ng/mL.
